According to article PMC9408373 (2022):

Experiments:
[1] = molecular target: T1, human CDC42 (aa 1-178), wild type (human, UniProt P60953 1-178); test: FP; mGDP-bound CDC42
[2] = molecular target: T1, human CDC42 (aa 1-178), wild type; test: FP; mGppNHp-bound CDC42

T1 sequence (P60953 1-178): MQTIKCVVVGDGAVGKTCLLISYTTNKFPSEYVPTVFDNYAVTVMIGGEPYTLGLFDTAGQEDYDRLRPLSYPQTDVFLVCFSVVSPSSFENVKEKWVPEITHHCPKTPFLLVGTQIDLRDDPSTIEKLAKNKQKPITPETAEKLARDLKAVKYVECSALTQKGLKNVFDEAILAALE

B1: human IQGAP2 C795 (aa 780-1575) (domain or fragment)
chain: PLTVIRKFVYLLDQSDLDFQEELEVARLREEVVTKIRANQQLEKDLNLMDIKIGLLVKNRITLEDVISHSKKLNKKKGGEMEILNNTDNQGIKSLSKERRKTLETYQQLFYLLQTNPLYLAKLIFQMPQNKSTKFMDTVIFTLYNYASNQREEYLLLKLFKTALEEEIKSKVDQVQDIVTGNPTVIKMVVSFNRGARGQNTLRQLLAPVVKEIIDDKSLIINTNPVEVYKAWVNQLETQTGEASKLPYDVTTEQALTYPEVKNKLEASIENLRRVTDKVLNSIISSLDLLPYGLRYIAKVLKNSIHEKFPDATEDELLKIVGNLLYYRYMNPAIVAPDGFDIIDMTAGGQINSDQRRNLGSVAKVLQHAASNKLFEGENEHLSSMNNYLSETYQEFRKYFKEACNVPEPEEKFNMDKYTDLVTVSKPVIYISIEEIISTHSLLLEHQDAIAPEKNDLLSELLGSLGEVPTVESFLGEGAVDPNDPNKANTLSQLSKTEISLVLTSKYDIEDGEAIDSRSLMIKTKKLIIDVIRNQPGNTLTEILETPATAQQEVDHATDMVSRAMIDSRTPEEMKHSQSMIEDAQLPLEQKKRKIQRNLRTLEQTGHVSSENKYQDILNEIAKDIRNQRIYRKLRKAELAKLQQTLNALNKKAAFYEEQINYYDTYIKTCLDNLKRKNTRRSIKLDGKGEPKGAKRAKPVKYTAAKLHEKGVLLDIDDLQTNQFKNVTFDIIATEDVGIFDVRSKFLGVEMEKVQLNIQDLLQMQYEGVAVMKMFDKVKVNVNLLIYLLNKKFYGK
[1]
  Kd: 113 µM

B2: human IQGAP1 C794 (aa 863-1657) (domain or fragment)
chain: DPPMVVVRKFVHLLDQSDQDFQEELDLMKMREEVITLIRSNQQLENDLNLMDIKIGLLVKNKITLQDVVSHSKKLTKKNKEQLSDMMMINKQKGGLKALSKEKREKLEAYQHLFYLLQTNPTYLAKLIFQMPQNKSTKFMDSVIFTLYNYASNQREEYLLLRLFKTALQEEIKSKVDQIQEIVTGNPTVIKMVVSFNRGARGQNALRQILAPVVKEIMDDKSLNIKTDPVDIYKSWVNQMESQTGEASKLPYDVTPEQALAHEEVKTRLDSSIRNMRAVTDKFLSAIVSSVDKIPYGMRFIAKVLKDSLHEKFPDAGEDELLKIIGNLLYYRYMNPAIVAPDAFDIIDLSAGGQLTTDQRRNLGSIAKMLQHAASNKMFLGDNAHLSIINEYLSQSYQKFRRFFQTACDVPELQDKFNVDEYSDLVTLTKPVIYISIGEIINTHTLLLDHQDAIAPEHNDPIHELLDDLGEVPTIESLIGESSGNLNDPNKEALAKTEVSLTLTNKFDVPGDENAEMDARTILLNTKRLIVDVIRFQPGETLTEILETPATSEQEAEHQRAMQRRAIRDAKTPDKMKKSKSVKEDSNLTLQEKKEKIQTGLKKLTELGTVDPKNKYQELINDIARDIRNQRRYRQRRKAELVKLQQTYAALNSKATFYGEQVDYYKSYIKTCLDNLASKGKVSKKPREMKGKKSKKISLKYTAARLHEKGVLLEIEDLQVNQFKNVIFEISPTEEVGDFEVKAKFMGVQMETFMLHYQDLLQLQYEGVAVMKLFDRAKVNVNLLIFLLNKKFYGK
[1]
  Kd: 64 µM

B3: human IQGAP1 GRD1 (aa 962-1345) (domain or fragment)
chain: SKEKREKLEAYQHLFYLLQTNPTYLAKLIFQMPQNKSTKFMDSVIFTLYNYASNQREEYLLLRLFKTALQEEIKSKVDQIQEIVTGNPTVIKMVVSFNRGARGQNALRQILAPVVKEIMDDKSLNIKTDPVDIYKSWVNQMESQTGEASKLPYDVTPEQALAHEEVKTRLDSSIRNMRAVTDKFLSAIVSSVDKIPYGMRFIAKVLKDSLHEKFPDAGEDELLKIIGNLLYYRYMNPAIVAPDAFDIIDLSAGGQLTTDQRRNLGSIAKMLQHAASNKMFLGDNAHLSIINEYLSQSYQKFRRFFQTACDVPELQDKFNVDEYSDLVTLTKPVIYISIGEIINTHTLLLDHQDAIAPEHNDPIHELLDDLGEVPTIESLIGESS
[1]
  Kd: 150 µM
[2]
  Kd: 152 µM

B4: human IQGAP2 GRD2 (aa 875-1246) (domain or fragment)
chain: SKERRKTLETYQQLFYLLQTNPLYLAKLIFQMPQNKSTKFMDTVIFTLYNYASNQREEYLLLKLFKTALEEEIKSKVDQVQDIVTGNPTVIKMVVSFNRGARGQNTLRQLLAPVVKEIIDDKSLIINTNPVEVYKAWVNQLETQTGEASKLPYDVTTEQALTYPEVKNKLEASIENLRRVTDKVLNSIISSLDLLPYGLRYIAKVLKNSIHEKFPDATEDELLKIVGNLLYYRYMNPAIVAPDGFDIIDMTAGGQINSDQRRNLGSVAKVLQHAASNKLFEGENEHLSSMNNYLSETYQEFRKYFKEACNVPEPEEKFNMDKYTDLVTVSKPVIYISIEEIISTHSLLLEHQDAIAPEKNDLLSELLGSLGE
[1]
  Kd: 55 µM
